Measured values: US20240400670A1 (JIANGSU HENGRUI PHARMACEUTICALS, published 2024)
Numbering of substitutions follows the chain as printed. Where two headings read alike, the source gives them in different places.

T1: human IL-23 (Sino Biological, CT048-H08H) (human, UniProt Q9NPF7 20-189; P29460 23-328)
T1 construct: also called human IL-23 protein; Human IL-23 p19
T1 sequence (looked up) 1: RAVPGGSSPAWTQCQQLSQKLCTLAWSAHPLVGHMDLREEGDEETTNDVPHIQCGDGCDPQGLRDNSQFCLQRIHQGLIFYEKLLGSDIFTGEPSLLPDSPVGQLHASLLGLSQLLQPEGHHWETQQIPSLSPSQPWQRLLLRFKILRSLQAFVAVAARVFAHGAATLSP
T1 sequence (looked up) 2: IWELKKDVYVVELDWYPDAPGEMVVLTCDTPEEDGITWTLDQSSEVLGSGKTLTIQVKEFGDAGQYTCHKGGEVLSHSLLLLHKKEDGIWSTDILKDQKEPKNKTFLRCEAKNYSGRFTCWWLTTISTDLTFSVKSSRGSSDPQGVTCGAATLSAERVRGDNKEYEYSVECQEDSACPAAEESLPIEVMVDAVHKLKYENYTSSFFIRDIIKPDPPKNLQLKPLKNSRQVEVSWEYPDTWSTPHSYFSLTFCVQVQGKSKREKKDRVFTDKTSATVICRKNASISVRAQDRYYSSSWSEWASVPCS

T2: mouse IL-23 (R&D Systems, 1887-ML/CF) (mouse, UniProt Q9EQ14 22-196; P43432 23-335)
T2 construct: also called Mouse IL-23 p19
T2 sequence (looked up) 1: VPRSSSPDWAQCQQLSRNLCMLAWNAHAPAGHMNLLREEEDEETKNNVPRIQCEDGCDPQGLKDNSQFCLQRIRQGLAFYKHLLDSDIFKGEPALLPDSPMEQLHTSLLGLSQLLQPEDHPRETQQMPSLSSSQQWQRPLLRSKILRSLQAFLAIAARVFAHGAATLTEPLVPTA
T2 sequence (looked up) 2: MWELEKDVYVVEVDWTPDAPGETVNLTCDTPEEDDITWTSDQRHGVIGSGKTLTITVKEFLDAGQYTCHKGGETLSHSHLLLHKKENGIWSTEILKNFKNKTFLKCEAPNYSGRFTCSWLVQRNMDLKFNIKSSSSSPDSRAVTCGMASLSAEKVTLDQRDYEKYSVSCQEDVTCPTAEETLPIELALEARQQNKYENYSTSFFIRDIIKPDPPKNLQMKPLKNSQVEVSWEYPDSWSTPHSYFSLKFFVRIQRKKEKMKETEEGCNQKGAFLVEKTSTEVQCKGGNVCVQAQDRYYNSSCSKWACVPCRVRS

T3: IL-23 (R&D Systems, 1290-IL-010) (UniProt Q9NPF7 20-189; P29460 23-328)
T3 sequence (looked up) 1: T1 sequence (looked up) 1
T3 sequence (looked up) 2: T1 sequence (looked up) 2

B1: Ch29 (antibody, human IgG1, kappa, L234A L235A, V domains shown)
VH: QVQLKESGPGLVAPSQSLSITCTVSGFSLTSYAISWVRQPPGKGLEWLGVIWTGGGTNYNSGIKSRLTISKDNSKSQVFLNMNSLQTEDTARYYCVREGDYGSYAGAMDYWGQGTSVTVSS
VL: DIVLTQSPASLAVSLGQRATISCRASESVDYYGISSMHWFQQKPGQPPKLLIYRASNLESGIPARFSGSGSRTDFTLTINRVETDDVATYYCQQANKDPYTFGGGTKLEIKR
notes: chimeric: murine variable regions on hIgG1/hkappa; also called chimeric antibody of mAb29
B2: Hu29-19 (antibody, human IgG1, kappa, L234A L235A, V domains shown)
VH: QVTLKESGPVLVKPTETLTLTCTVSGFSLTNYAISWVRQPPGKGLEWLGVIWTGGGTNYNSGIKSRLTISKDNSKSQVVLTMTNMDPVDTARYYCVREGDYGSYAGAMDYWGQGTTVTVSS
VL: DIVLTQSPDSLAVSLGERATINCRASESVDYYGISSMHWFQQKPGQPPKLLIYRASNLESGIPARFSGSGSRTDFTLTISSLQAEDVAVYYCQQANKDPYTFGGGTKVEIKR
notes: humanized mAb29, IgG1/kappa
B3: Hu29-24 (antibody, human IgG1, kappa, L234A L235A)
heavy: not shown
light: DIVLTQSPDSLAVSLGQRATINCRASESVDYYGISSMHWFQQKPGQPPKLLIYRASNLESGIPARFSGSGSRTDFTLTISSLQAEDVAVYYCQQANKDPYTFGGGTKVEIKRTVAAPSVFIFPPSDEQLKSGTASVVCLLNNFYPREAKVQWKVDNALQSGNSQESVTEQDSKDSTYSLSSTLTLSKADYEKHKVYACEVTHQGLSSPVTKSFNRGEC
notes: humanized mAb29, IgG1/kappa
B4: Hu38-4 (antibody, human IgG1, kappa, L234A L235A, V domains shown)
VH: EFQLVQSGAEVKKPGASVKVSCKASGYTFTDHNMNWVRQAPGQRLEWMGVINPNYGTTTYNQKFKGRVTITVDTSASTAYMELSSLRSEDTAVYYCARRGFAYWGQGTLVTVSS
VL: DIVMTQTPLSLPVTPGEPASISCRSSKSLLYKDGKTYLNWFLQKPGQSPQLLIYLMQTRASGVPDRFSGSGSGTDLTLKISRVEAEDVGVYYCQQIAEYPFTFGSGTKLEIKR
notes: humanized mAb38, IgG1/kappa
B5: Hu38-5 (antibody, human IgG1, kappa, L234A L235A, V domains shown)
VH: B4 VH with F2V, T28S
VL: B4 VL with F41Y, Q57S, L76F
notes: humanized mAb38, IgG1/kappa
B6: Hu38-13 (antibody, human IgG1, kappa, L234A L235A, V domains shown)
VH: B4 VH with T28S, R44S, T74Q
VL: B4 VL with F41Y, Q57S, L76F
notes: humanized mAb38, IgG1/kappa
B7: Hu38-9 (antibody, human IgG1, kappa, L234A L235A, V domains shown)
VH: B4 VH with T28S, T74Q
VL: B4 VL with F41Y, Q57S, L76F
notes: humanized mAb38, IgG1/kappa
B8: Ch38 (antibody, human IgG1, kappa, L234A L235A, V domains shown)
VH: EFQLQQSGPELVKPGASVKISCKASGYSFTDHNMNWVKQSNGKSLEWIGVINPNYGTTTYNQKFKGKATLTVDQSSSTAYMQLNILTSEDSAVYYCARRGFAYWGQGTLVTVSA
VL: DIVISQDELSNPVTSGESVSISCRSSKSLLYKDGKTYLNWFLQRPGQSPQLLIYLMSTRASGVSDRFSGSGSGTDLTLEISRVKAEDVGVYYCQQIAEYPFTFGSGTKLEIKR
notes: chimeric: murine variable regions on hIgG1/hkappa; also called chimeric antibody of mAb38

Experiments:
[1] = molecular target: T1, human IL-23 (Sino Biological, …); assay: ELISA, sample coated, IL-23 titrated, anti-His-HRP
Experimental: (§1) The specific procedures are as follows:
The test sample was diluted to 2 μg/mL with a PBS (BasalMedia, B320) buffer at pH 7.4 and added to a 96-well microplate (Coming, 3590) at 100 μL/well. The plate was incubated at 4° C. overnight. After the liquid was discarded, 5 % skim milk (BD, 232100) diluted with PBS was added at 300 μL/well for blocking, and the mixture was incubated at 37° C. for 2 h. After the blocking was completed, the blocking solution was discarded, and the plate was washed 3 times with a PBST buffer (pH 7.4, PBS containing 0.1 % tween-20). […] After the incubation, the plate was washed 3 times with PBST. […] After the plate was washed 3 times with PBST, a TMB chromogenic substrate (KPL, 5120-0077) was added at 100 μL/well, and the mixture was incubated at room temperature for 10⁻¹⁵ min, and then 1 M H₂SO₄ was added at 50 μL/well to terminate the reaction. The absorbance values at 450 nm were taken using a microplate reader. The binding curves of antibodies to antigens were fitted using software, and the EC₅₀ values were calculated.

[2] = molecular target: T1, human IL-23 (Sino Biological, …); assay: SPR (Biacore), Protein A capture of sample, 1:1 model
Experimental: (§2) A certain amount of test sample was subjected to affinity capture by a biosensor chip Protein A (GE, 29127556), and then antigens at a series of concentration gradients were allowed to flow on the surface of the chip. The reaction signals were detected in real time by using Biacore (GE, 8 K) to obtain association and dissociation curves. After the dissociation was completed for each cycle, the biochip was washed and regenerated with a 10 mM glycine-hydrochloric acid solution at pH 1.5 (GE, BR-1003-54). Fitting was performed based on the experimental data using BlAevaluation version 4.1 software with a 1:1 model, and affinity values were obtained.

[3] = molecular target: T1, human IL-23 (Sino Biological, …); assay: competition ELISA, blocks IL-23/IL-23R; IL-23R coated, biotin-IL-23 + sample gradient
Experimental: as §1
The receptor protein was diluted to 2 μg/mL with a PBS (BasalMedia, B320) buffer at pH 7.4 and added to a 96-well microplate (Corning, 3590) at 100 μL/well. The plate was incubated at 4° C. overnight. After the liquid was discarded, 1 % Casein blocking solution (Thermo, 37528) was added at 200 μL/well for blocking, and the plate was incubated at 37° C. for 2 h. After the blocking was complete, the blocking solution was discarded, and the plate was washed 3 times with a PBST buffer (pH 7.4 PBS containing 0.1 % tween-20) for later use. After the biotin-labeled ligand protein at a fixed concentration was mixed with an antibody or fusion protein diluted in a gradient, the mixture was pre-incubated at 37° C. for 30 min and then added to the blocked microplate. The plate was incubated at 37° C. for 1.5 h. After the incubation was complete, the plate was washed 3 times with PBST. Streptavidin-HRP (Invitrogen, 434323, diluted at 1:4000) was added at 100 μL/well, and the plate was incubated at 37° C. for 1 h. The supernatant was removed. After the plate was washed 3 times with PBST, TMB chromogenic substrate (KPL, 5120-0077) was added at 100 μL/well, and the plate was incubated at room temperature for 10⁻¹⁵ min. 1 M H₂SO₄ was added at 50 μL/well to terminate the reaction. The absorbance values at 450 nm were taken using a microplate reader. Curves for the inhibition of binding of the ligands to the receptors were fitted using software, and the IC₅₀ values were calculated.

[4] = molecular target: T1, human IL-23 (Sino Biological, …); assay: cell-based or functional assay
[5] = molecular target: T2, mouse IL-23 (R&D Systems, 1887-ML/CF); assay: SPR (Biacore), Protein A capture of sample
[6] = molecular target: cynomolgus monkey IL-23 (Acro Biosystems, ILB-CM52W8) (cynomolgus monkey, UniProt H6WS56 20-189); assay: SPR (Biacore), Protein A capture of sample, 1:1 model
Experimental: as §2

[7] = molecular target: T3, IL-23 (R&D Systems, 1290-IL-010); assay: cell-based or functional assay
[8] = molecular target: T1, human IL-23 (Sino Biological, …); assay: cell-based or functional assay; remark: listed apart in the source

Binder	EC50 [1] [pM]	Kd [2] [pM]	koff [2] [s⁻¹]	kon [2] [M⁻¹ s⁻¹]	IC50 [3] [pM]	Activity in inhibiting proliferation of BaF3-IL-23R cells (IC50, nM) [4] [nM]	binding result [5]	Kd [6] [pM]	koff [6] [s⁻¹]	kon [6] [M⁻¹ s⁻¹]	IC50 for inhibiting IL-17 secretion [7] [pM]	Activity in inhibiting proliferation of BaF3-IL-23R cells (IC50, nM) [8] [nM]
B1	1160	20.7	8.4e-05	4.05e+06	386	0.175	–	–	–	–	–	–
B2	1110	15.1	4.08e-05	2.71e+06	478	0.194	no binding	70.8	0.000192	2.71e+06	17.8	–
B3	1220	14.9	–	–	488	0.178	no binding	85.7	–	–	28.9	–
B4	1880	196	6.92e-05	353000	427	–	no binding	76.8	3.09e-05	402000	–	0.122
B5	–	277	5.82e-05	210000	228	–	–	–	–	–	–	0.148
B6	–	270	5.56e-05	206000	455	–	–	–	–	–	–	0.187
B7	–	283	6.68e-05	236000	496	–	–	–	–	–	–	0.198
B8	1830	90.1	5.65e-05	627000	361	0.222	–	–	–	–	–	–
